To fix the notation:
B1: Ep114-displaying phage (peptide)
chain: KHLQCVRNICWS
modifications: cysteine pairing not given here; also: displayed on phage
notes: not shown: fusion and linker not described
B2: Ep114(K1A) variant phage (peptide)
chain: AHLQCVRNICWS
modifications: not fully specified (bridges); cysteine pairing not given here; also: displayed on phage
notes: also called variant in which lysine at the 1st residue was substituted by alanine (A); not shown: not described
B3: Ep114(K1S) variant phage (peptide)
chain: SHLQCVRNICWS
modifications: not fully specified (bridges); cysteine pairing not given here; also: displayed on phage
notes: also called variant in which lysine at the 1st residue was substituted by serine (S); not shown: not described
B4: Ep114(K1N) variant phage (peptide)
chain: NHLQCVRNICWS
modifications: not fully specified (bridges); cysteine pairing not given here; also: displayed on phage
notes: also called variant in which lysine at the 1st residue was substituted by asparagine (N); not shown: not described
B5: Ep114(L3A) variant phage (peptide)
chain: KHAQCVRNICWS
modifications: not fully specified (bridges); cysteine pairing not given here; also: displayed on phage
notes: not shown: not described
B6: Ep114(K1I) variant phage (peptide)
chain: IHLQCVRNICWS
modifications: not fully specified (bridges); cysteine pairing not given here; also: displayed on phage
notes: also called variant in which lysine at the 1st residue was substituted by isoleucine (I); not shown: not described
B7: EpCAM partial sequence (sequence of EpCAM from residue 106 to 119) (peptide)
peptide: KAKQCNGTSMCWPK
modifications: cysteine pairing not given here; also: FITC-modified, position not given here
B8: Ep301 control (peptide)
peptide: KSLQSINNLSWP
modifications: also: FITC-modified, position not given here
notes: Ep301 with cysteine at positions 5 and 10 substituted by serine
B9: Ep114(K1W) variant phage (peptide)
chain: WHLQCVRNICWS
modifications: not fully specified (bridges); cysteine pairing not given here; also: displayed on phage
notes: also called variant in which lysine was substituted by tryptophan (W); not shown: not described
B10: Ep114(K1M) variant phage (peptide)
chain: MHLQCVRNICWS
modifications: not fully specified (bridges); cysteine pairing not given here; also: displayed on phage
notes: also called variant in which lysine was substituted by methionine (M); not shown: not described
B11: Ep114(K1Y) variant phage (peptide)
chain: YHLQCVRNICWS
modifications: not fully specified (bridges); cysteine pairing not given here; also: displayed on phage
notes: also called variant in which lysine was substituted by tyrosine (Y); not shown: not described
B12: Ep114(K1F) variant phage (peptide)
chain: FHLQCVRNICWS
modifications: not fully specified (bridges); cysteine pairing not given here; also: displayed on phage
notes: also called variant in which lysine was substituted by phenylalanine (F); not shown: not described
B13: Ep133 peptide (peptide)
peptide: EHLHCLGSLCWP
modifications: disulfide 5-10; also: FITC-modified, position not given here
notes: Synthetic peptide, FITC-modified in fluorescence depolarization and cell staining
B14: Ep114 peptide (peptide)
peptide: KHLQCVRNICWS
modifications: disulfide 5-10; also: FITC-modified, position not given here
notes: as for B13
B15: PE185 peptide (peptide)
peptide: Ac-KHLQCVRNICWSNNNNSNNNNK(Biotin)-NH2
modifications: not fully specified (bridges); printed as Ac-KHLQCVRNICWSNNNNSNNNNK(biotin)-NH2; cysteine pairing not given here
B16: PE184 peptide (peptide)
peptide: Ac-KHLQCVRNICWSGGSGGSK(Biotin)-NH2
modifications: not fully specified (bridges); printed as Ac-KHLQCVRNICWSGGSGGSK(biotin)-NH2; cysteine pairing not given here
notes: Ep114 with the linker GGSGGSK, biotin-modified
B17: Ep301 peptide (peptide)
peptide: KSLQCINNLCWP
modifications: disulfide 5-10; also: FITC-modified, position not given here

Bridge positions count the residues as written; N and C are the ends. Ends that are not written are not given here. * marks the point of attachment. Biotin = O=C1N[C@H]2[C@H](CS[C@H]2CCCCC(=O)*)N1

The values that follow come from patent US20150246945A1 (JAPANESE FOUNDATION FOR CANCER RESEARCH, published 2015).

A word on the Kd: it is the equilibrium constant for the complex coming apart. Low values mean higher affinity, high ones lower affinity.

One assay deals with T1, purified EpCAM (extracellular domain with myc and His tags at the C terminus, expressed in HEK-293T cells) (UniProt P16422 24-265, limits assumed).
T1 construct: extracellular domain; also called epithelial cell adhesion molecule; CD326
T1 sequence (looked up): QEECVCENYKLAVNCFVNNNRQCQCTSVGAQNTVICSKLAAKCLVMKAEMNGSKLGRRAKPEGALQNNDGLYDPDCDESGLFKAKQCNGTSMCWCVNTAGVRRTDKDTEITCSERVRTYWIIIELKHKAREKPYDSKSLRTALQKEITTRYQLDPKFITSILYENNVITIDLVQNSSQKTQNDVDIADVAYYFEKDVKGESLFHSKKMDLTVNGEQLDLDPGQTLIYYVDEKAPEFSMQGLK
Put plainly: phage bound to EpCAM, captured on beads, phages counted. As for the experimental part:
The analysis was conducted using the variants in which lysine at the 1st residue was substituted by alanine (A), asparagine (N), serine (S), or isoleucine (I), and M13KE, Ep114, and the variant in which leucine at the 3rd residue was substituted by alanine as controls. Each phage of 1×10¹⁰ PFU was bound to 1 μg of EpCAM, and then mixed with 0.4 mg of beads pretreated overnight with 0.5% BSA and B&W buffer (5 mM Tris-HCl (pH 7.5), 0.5 mM EDTA, and 1 M NaCl). The number of phages bound to the beads was counted.
Take B1: the binding result is “binds”. Regarding B2, the binding result is on record as “binds”. On the same count and under the same terms, for B3 the value was “binds”; for B4, “binds”; for B5, “binds”. Same read-out and setting: for B6 the value was “binds”.

Another assay concerns the target T1, purified EpCAM (extracellular domain …). Put plainly: fluorescence depolarization, FITC-modified peptide. Here is the method: (§1) Each FITC-modified EpCAM peptide or control peptide was suspended at a concentration of approximately 100 μM in PBS. After centrifugation, the supernatant was collected and diluted 10-fold, and the absorbance was measured at 495 nm From the measurement value, the molar concentration of the peptide was determined using the formula of Beer-Lambert of the following expression 1: […]
(§2) EpCAM is diluted with PBS into several concentrations from 0 until reaching equilibrium (40 nM for the Ep133 peptide), and the FITC-modified peptide whose precise concentration has been measured by the aforementioned method is added to the dilutions thus prepared. The sample was left at a temperature for measurement for 30 minutes or longer and subjected to polarization measurement using a spectrofluorometer FP-6500 (JASCO Corp.) equipped with an automatic polarization measurement unit (JASCO Corp., APH-103). Kd was estimated by curve fitting according to the Hill equation.
The dissociation constants of the EpCAM-binding peptide Ep301 (FIG. 2(D)) disclosed in Patent Literature 2 and Ep301 control (FIG. 2(E)), which was a control peptide derived from Ep301 by the substitution of cysteine at positions 5 and 10 by serine, and a sequence of EpCAM from residue 106 to 119 (FIG. 2(F)) having partial homology to EpCAM-binding peptides were measured similarly.
Regarding B7, the binding result was “no binding”. Same read-out and setting: the same measure for B8: “no binding”.

Another assay shares this target. Briefly: phage ELISA on immobilized EpCAM. Here is the method: The phages displaying the peptides in which each amino acid of Ep114 was substituted by alanine are added to the EpCAM- or anti-Ep114 antibody-immobilized plate, and the plate is left still at room temperature for 1 hour. After washing with TBST, HRP-labeled anti-M13 antibodies were reacted therewith, followed by detection using ABTS (2,2′-azinobis(3-ethylbenzothiazoline-6-sulfonic acid). The binding activity against EpCAM is shown in FIG. 3A, and the binding activity against the anti-Ep114 antibody is shown in FIG. 3B. M13KE is a phage displaying no peptide and is a negative control.
As with the alanine substitution variants, variant phages were prepared by the introducing specific mutations to lysine at the 1st residue based on inverse PCR method and analyzed for binding activity against EpCAM. The analysis method involved evaluation by ELISA in the same way as in the functional analysis of the Ep114 peptide by the alanine scanning. In the figure, EpCAM+ and EpCAM− represent the presence and absence of EpCAM immobilization onto a plate, respectively. Corrected value represents a value subtracting the measurement of EpCAM− from the measurement of EpCAM+.
B9: the binding result is given as “binds”. The same measure, in the same setting: the same measure for B10: “binds”. B11: the binding result is on record as “binds”. As to B12, the binding result is reported as “binds”.

For a further assay the target is unchanged. Briefly: fluorescence depolarization. Here is the method: as §1, §2
Regarding B13, the “fold strength of binding compared with Ep301” value was at least 10 times. Same read-out and setting: the same measure for B14: at least 10 times.

Another assay addresses T2, EpCAM, whole protein on cells (HT-29, MCF-7, 293T transfected with full-length EpCAM plasmid pkk196) or on … (UniProt P16422 24-314, limits assumed).
T2 construct: whole, on cells; Used for both cell-surface EpCAM and EpCAM carried on HT-29 exosomes; the assay field says which; also called EpCAM on HT-29; EpCAM-expressing cells
T2 sequence (looked up): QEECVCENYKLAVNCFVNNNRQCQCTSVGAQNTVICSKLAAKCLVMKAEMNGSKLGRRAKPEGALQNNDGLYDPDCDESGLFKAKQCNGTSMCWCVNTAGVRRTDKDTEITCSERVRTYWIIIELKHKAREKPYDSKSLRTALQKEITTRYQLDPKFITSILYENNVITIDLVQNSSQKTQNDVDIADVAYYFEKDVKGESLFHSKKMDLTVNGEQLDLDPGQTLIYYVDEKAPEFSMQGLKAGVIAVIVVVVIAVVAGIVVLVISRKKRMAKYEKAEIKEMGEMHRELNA
Put plainly: pull-down of HT-29 exosomes on peptide-loaded streptavidin beads, Western blot with anti-EpCAM. As for the experimental part:
250 μg of streptavidin-magnetic beads (Dynabeads® M-280 streptavidin, VERITAS Corp.) in TBS containing 2% BSA was added to 20 μg of the biotinylated Ep114 peptide and shaken at room temperature for 30 minutes, followed by washing with TBS. Beads reacted without the peptide were used as a control. The anti-Ep114 antibody was added to the beads in TBST and reacted at room temperature for 1 hour. After washing with TBS, the beads were collected. The collected beads were heated at 95° C. for 5 minutes in a SDS sample buffer. After Western-blotting, the anti-Ep114 antibody was detected using HRP-labeled anti-rabbit antibodies.
The binding to exosomes was confirmed using the Western blot system in the similar method as in the preceding paragraph 1. Specifically, 20 μg of the biotinylated Ep114 peptide, the PE183 peptide, the PE184 peptide, or the PE185 peptide was bound to 250 μg of streptavidin-magnetic beads and then reacted with exosomes isolated from HT-29 cells as EpCAM-positive cells, followed by Western blot to detect the exosomes using anti-EpCAM polyclonal antibodies (see the left panel of FIG. 5C).
As for B15, the binding result was “binds”. Still for that read-out and setting: the same measure for B16: “binds”.

The target of another assay is T1, purified EpCAM (extracellular domain …). Briefly: fluorescence depolarization, FITC-modified peptide, Hill fit. Here is the method:
as §1, §2
Molecule B13 yielded a Kd of 1.5 nM. In other words, the single-digit nanomolar range.

Molecule B17 came in with a dissociation constant (Kd) of 20 nM. In the case of B14, the affinity, expressed as Kd, was 1.6 nM.
